Laboratory results reported in the supplement of paper PMC9170038.

Tested on: MS2 coat protein
Assay: apparent KD of MS2 coat protein; designed switch direction (-1 OFF switch, 1 ON switch): -1; higher = weaker reporter binding
Summary of the method: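 Normalised cluster fluorescence was curve-fitted, and each design's median over clusters is its apparent KD. Before this, SNAP-549-labelled MS2 coat protein was titrated from 0.7 or 1.5 nM, doubling to 3 µM, over RNA switches transcribed on Illumina chips by stalled E. coli RNA polymerase. Titrations had no input, 200 uM small-molecule ligand, or an oligonucleotide input, and steps lasted 0.8–1.5 h (lowest) to 10–20 min (highest).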

[1] = input ligand: microRNA oligo, concentration not stated
[2] = Eterna round: R95, input ligand: microRNA oligo, concentration not stated
[3] = Eterna round: R95, input ligand: FMN 200 uM
[4] = Eterna round: R95, input ligand: none

Sequence	apparent KD of MS2 coat protein [1] [µM]	apparent KD of MS2 coat protein (input ligand: FMN 200 uM) [µM]	apparent KD of MS2 coat protein (input ligand: none) [µM]	further results
AGCUGUGGCCGAGGAUAUCUAACAAUCCUAACCGAAAUAUAAUCGGACAUGAGGAUCACCCAUGUAGAGAAGGCGGUCUCAGCA [Eli eng2 - 074] (Eterna round: R96, puzzle: Exclusion NG 2)	0.0681	–	–	–
UUAGAUAGGUCAGGAUAUCGAUUAUUGUAUAGUAUGAUUUACAUGAGGAUCACCCAUGUUAAAUACGAGAAGGGACGUUAGAUU [JR_ExcNG2_Sub022] (Eterna round: R96, puzzle: Exclusion NG 2)	0.0169	–	–	–
AAACCUUGAGGAUAUACAUAACAACAAAGCCUCACGUGCCAACAUGAGGAUCACCCAUGUAGAAGGCAGGCCAA [Mod R3 Insanara 11 - Jieux - Exclusion 2] (Eterna round: R97, puzzle: Exclusion 2)	–	0.0156	0.0127	–
CUGUUUUUCGCAGGAUAUGCUCCUCCUUUAUUUGCAGAAGGGCGUUAAACAUGAGGAUCACCCAUGUAUGGUAAUGACUUUUUC [JR_ExcNG1_Sub064] (Eterna round: R96, puzzle: Exclusion NG 1)	0.0169	–	–	–
UACCUAUAGGUAGGAUAUCAUUGCGAUUAGCUAUGAGAAGGACCACAUGAGGAUCACCCAUGUCCUCCAAUUAACCGAAAGGUA [Fiskers ExNg1 - 2] (Eterna round: R96, puzzle: Exclusion NG 1)	0.0397	0.0773	0.0504	–
CUUAAGGCAGGAUAUGCUUUUUGUGACAUGAGGAUCACCCAUGUGAUGCAGUUUGGGUGUGCAGAAGGGCCUGAGU [JR_E5_Sub033] (puzzle: Exclusion 5)	–	–	–	apparent KD of MS2 coat protein [2]: 0.378 µM
UGUAACCUGGUAAGGAUAUAGUUGCAAGGAGUCAACUAGAAGGUACAUGAGGAUCACCCAUGUCUACGGAUAUC [Eternabot (L2) Solution 91] (Eterna round: R97, puzzle: Brourd's mod of Exclusion 4)	–	0.0206	0.0173	–
AGUAGUAGUAUCCGAUCCUACAUGAGGAUCACCCAUGUAGCUGGACGUGCACGCGAUGCUCGUCAGACUACCAGAUG [salish99_TOv1_r3_044] (puzzle: Sensor v3, turn-off variant 1)	–	–	–	apparent KD of MS2 coat protein [3]: 0.181 µM; apparent KD of MS2 coat protein [2]: 0.131 µM; apparent KD of MS2 coat protein [4]: 0.15 µM
GCACGGAGUGCAGGAUAUCUGUGCGAUUAGCUCAGAGAAGGGCACAUGAGGAUCACCCAUGUGUAUAAACACAAUAAUCCGUGC [Eli exng1 - 068] (Eterna round: R96, puzzle: Exclusion NG 1)	0.00994	0.0186	0.014	–
AAGAUGUCAGGAUAUUAGUAGUAAAUGAAUAAAAUUAUUACUGAGAAGGGACAUGAGGAUCACCCAUGUGUCUU [Mat - Exclusion 4 - Eli Mod - D11] (Eterna round: R97, puzzle: Exclusion 4)	–	0.0802	0.0198	–
CAUACUGAAGUUAGGAUAUUCGAACGUAUACGGAUGGAGAAGGGACAUGAGGAUCACCCAUGUAGUUAGUAAAG [EX-4 Malc #10] (puzzle: Brourd's mod of Exclusion 4)	–	–	–	apparent KD of MS2 coat protein [3]: 0.0173 µM; apparent KD of MS2 coat protein [2]: 0.0174 µM; apparent KD of MS2 coat protein [4]: 0.0223 µM
UAGAAGGUAGGAUAUACGAAUAAAUAGGGUAGGAAGAAGACACAUGAGGAUCACCCAUGUAGAAGGACCAAGAU [Mat - Exclusion 2 - Mod of my Tesla design - D34] (puzzle: Exclusion 2)	–	–	–	apparent KD of MS2 coat protein [3]: 0.0366 µM; apparent KD of MS2 coat protein [2]: 0.0175 µM; apparent KD of MS2 coat protein [4]: 0.0185 µM
AGUACUAACACGAAAGUGUUAGUACAAUAAGCUUGUGAAACAUGAGGAUCACCCAUGUCCUCAUUAGCUCGUCUUAU [salish99_TOv2_r3_050] (puzzle: Sensor v3, turn-off variant 2)	–	–	–	apparent KD of MS2 coat protein [3]: 0.184 µM; apparent KD of MS2 coat protein [2]: 0.451 µM; apparent KD of MS2 coat protein [4]: 0.172 µM
GCUGGACGAGGAUAUAUAUGACGUGCUUCGGCACGAAGAUCACAUGAGGAUCACCCAUGUAGAAGGUGUCCAGC [E2/8-B2] (Eterna round: R97, puzzle: Exclusion 2)	–	0.278	0.0541	–
AAGGAUAGAGGAUAUACAUAGAUACAGAUUCAUGUAGAACUACAUGAGGAUCACCCAUGUAGAAGGCUAUCCUA [Mat - Same state - Mayanna Mod - D121] (Eterna round: R96, puzzle: Exclusion 2)	0.0248	0.316	0.0333	–
ACAAGCUUUUAGAUUUUCAACAUGAGGAUCACCCAUGUUCGUCUUGUGCUCGGGCUUGGGCGGUGUCCGGGUUUGGG [JL TOV1 3.77 sellena mod] (Eterna round: R97, puzzle: Sensor, turn-off variant 1)	–	0.033	0.0347	–
UAUAAACAUGAGGAUCACCCAUGUGAGGAUAUCUAAACCAGAGCGGAUCUCUGGACCAAGAGAAGGUGCAUGGU [ElNandoxlusion 10 - Jieux - Exclusion 1] (Eterna round: R97, puzzle: Exclusion 1)	–	0.0669	0.0317	–

Sequence	apparent KD of MS2 coat protein [1] [µM]	apparent KD of MS2 coat protein (input ligand: FMN 200 uM) [µM]	apparent KD of MS2 coat protein (input ligand: none) [µM]	further results
GAUAGACAUGAGGAUCACCCAUGUGAGGAUAUGCGUACGUUGUCCGUAGGCGACGUGCGCAGAAGGCGCGAGGU [Mat - Mod of JL D93] (puzzle: Exclusion 1)	–	–	–	apparent KD of MS2 coat protein [2]: 0.0425 µM
ACAUGAGGAUCACCCAUGUGACAAUAAUGGCUGAUACAGAAACAGGAUAUUCGUGAAUAUCUAACGAAGAAGGGUUAUGACUGG [Deportation 68 - Jieux - Exclusion NG 3] (Eterna round: R96, puzzle: Exclusion NG 3)	0.041	0.0364	0.044	–
AGUACUUACACGAAAGUGUUAGUACAAUAAGCUUGUGAAACAUGAGGAUCACCCAUGUCCUCAUAAGCUCGUCUUAU [salish99_TOv2_r3_016] (puzzle: Sensor v3, turn-off variant 2)	–	–	–	apparent KD of MS2 coat protein [3]: 0.0186 µM; apparent KD of MS2 coat protein [2]: 0.615 µM; apparent KD of MS2 coat protein [4]: 0.0171 µM
AGCUGUGGCCGAGGAUAUCUAGCUUCAAUAACCGAAAUAUAAUCGGACAUGAGGAUCACCCAUGUAGAGAAGGCGGUCUCAGCA [Eli eng2 - 084] (Eterna round: R96, puzzle: Exclusion NG 2)	0.0223	–	–	–
AUAAUGUCAGGAUAUCAGUCGACUAGCUGCGGCUAGUCGACUGAGAAGGGACAUGAGGAUCACCCAUGUGUUUC [E4/14-A3] (Eterna round: R97, puzzle: Exclusion 4)	–	0.475	0.367	–
GUAGAGUGAGGAUAUACGAGAUCGAAAGAUCGGCGAUCCAUACAUGAGGAUCACCCAUGUAGAAGGCACUCUAC [Eli x2 4.002] (Eterna round: R97, puzzle: Exclusion 2)	–	0.521	0.0263	–
AUUUUAUAACAAGGAUAUACUAAACAUGAGGAUCACCCAUGUAAUAUUAUGAGUGAGAGAGAGAAGUAGAAGGUGUAUUAUUUU [JMF solution 1] (Eterna round: R96, puzzle: Exclusion NG 2)	0.0974	–	–	–
UUUGUUUAUGUAGGAUAUGCCUGGCGUGCCUUUGCAGAAGGACAUGAGGAUCACCCAUGUAUUGCGGUCUGCGUUCAGAUCGCC [salish99_ExNG1_r4_036] (Eterna round: R96, puzzle: Exclusion NG 1)	0.0174	0.0296	0.023	–
UAUUUACGAGGAUAUCGUUUUUUUCACAUGAGGAUCACCCAUGUUGUUUAUGUUGCGUUGCGAGAAGGCGUUUGUU [JR_E5_Sub062] (puzzle: Exclusion 5)	–	–	–	apparent KD of MS2 coat protein [2]: 0.0266 µM
UGAGCUUGAGGAUAUACAAGGCGACCGUGAGGUCGAGGGUUACAUGAGGAUCACCCAUGUAGAAGGCAAGUUCU [Mat - Exclusion 2 - JL Mod - D10] (Eterna round: R97, puzzle: Exclusion 2)	–	0.46	0.0543	–
CGUGUCUUUCACGUGAGUGGUGGGUGCAACAGGUGGGUUACAUGAGGAUCACCCAUGUCCUCACUUGCUCGUCUUUU [Grok-var2-04] (puzzle: Sensor v3, turn-off variant 2)	–	–	–	apparent KD of MS2 coat protein [3]: 0.0361 µM; apparent KD of MS2 coat protein [2]: 0.109 µM; apparent KD of MS2 coat protein [4]: 0.0372 µM
AUUUAGCAAGCCUGAUCCUACAUGAGGAUCACCCAUGUAGUUCGUCUUAUUUGAAGACAACACAAAAGUGUUGUCUU [Omei Mir OFFv1 B7] (Eterna round: R97, puzzle: Sensor, turn-off variant 1)	–	0.0183	0.0185	–
UUUUAACAUGAGGAUCACCCAUGUGAGGAUAUCGAAAUUUAUAUUUAUAUUUAUAAAACGAGAAGGCACAUUUU [JMF 91] (puzzle: Exclusion 1)	–	–	–	apparent KD of MS2 coat protein [2]: 0.113 µM
UUGUUGUAUGUAGGAUAUGCGUGUUAUUAUUAUGCAGAAGGACAUGAGGAUCACCCAUGUAUAUUAUUAUUAUAUGUUAUAUAU [Title] (Eterna round: R96, puzzle: Exclusion NG 1)	0.0176	–	–	–
UAACAUGUCUGAGGAUAUCUGCACGUUUAGUGCAGAGAAGGCAGAACAUGAGGAUCACCCAUGUAGAUCAUUAAUUAAUUAAUU [ENG1/7-B2] (Eterna round: R96, puzzle: Exclusion NG 1)	0.142	0.195	0.194	–
AAAUUUGGAGGAUAUCCAUUGGGAAACAUGAGGAUCACCCAUGUAAUAAAAGGGAAAUCCGGAGAAGGCCAAAUUU [-20.39, -19.1 kcal, 39% A] (Eterna round: R97, puzzle: Exclusion 5)	–	0.0457	0.0191	–
GACAUUUGAGGAUAUGCAGCUAGCUUCGUUUUCAAAUCGAGACAUGAGGAUCACCCAUGUAGAAGGCAAGGUCG [Eternabot (L1) Solution 88] (Eterna round: R97, puzzle: Exclusion 2)	–	0.0294	0.0319	–
